# B1: NFKB: benchmark DTS with NF-κB binding sites in pentameric repeat (SEQ ID NO: 140) (nucleic acid)
# DNA: GGGACTTTCCAGATTACTACTGATAGGGACTTTCCAGATTACTACTGATAGGGACTTTCCAGATTACTACTGATAGGGACTTTCCAGATTACTACTGATAGGGACTTTCC
# modifications: DNA nuclear targeting sequence within DNA cargo construct, further chemistry not given here
# Test system: mouse liver
# Assay: Pooled DTS pDNA-LNP i.v. in mice; mRNA abundance in liver by RNA-seq
# Type: in vivo
# Conditions: 1 d post-dose, pDNA-LNP 0.66 mg/kg i.v.
# Experimental: LNP formulation. LNPs encapsulating nucleic acid payloads were prepared by mixing an organic solution of lipids with an aqueous solution of nucleic acid (e.g., DNA only, mRNA only, or DNA/mRNA mixtures) as described in Prud′homme et al. (J Pharm Sci 2018). Briefly, the lipidic excipients mixture (ionizable lipid, helper lipid, cholesterol, PEG-lipid and potentially other targeting moieties) is dissolved in an organic solvent. An aqueous solution of the nucleic acid is prepared in a low pH buffer of range pH 3.0-4.0. The lipid mixture is then mixed with the aqueous nucleic acid solution at a flow ratio of 1:3 (V/V) using a commercially available mixer device. […] Particle size is determined by dynamic light scattering (Horiba nanoPartica SZ-100). Encapsulation efficiency is calculated by using Quant-it RiboGreen assay kit.
# Quantification of mRNA abundance from pooled DTS screens. […] The PCR amplified cDNA was then library prepped (NEBNext library prep for Illumina) and sequenced on an Illumina Miseq (2×150 bp reads). Counts for each UMI were translated into the corresponding DTS using the UMI/Barcode registry and changes in abundance of each DTS were statistically analyzed using a custom R script. The log 2 fold change is calculated by comparing the RNA level in the pool vs. its expected abundance, which is derived from the abundance in the corresponding input DNA pool. […]
molecule,measurement,value
B1,mRNA abundance in mouse liver compared to Spacer negative control,largest and most statistically significant increase
